± gives the standard deviation of the averaged measurements.
Assay: total protein half-life in vivo (active degradation + dilution); higher = more stable protein
[1] = E. coli NCM3722 delta-clpP delta-lon delta-hslV, growth: N-lim chemostat, doubling time 6 h
[2] = E. coli NCM3722 delta-clpP, growth: N-lim chemostat, doubling time 6 h
[3] = E. coli NCM3722 delta-hslV, growth: N-lim chemostat, doubling time 6 h
[4] = E. coli NCM3722 delta-lon, growth: N-lim chemostat, doubling time 6 h
[5] = E. coli NCM3722 delta-smpB, growth: N-lim chemostat, doubling time 6 h
[6] = wild type E. coli NCM3722, growth: C-lim chemostat, doubling time 3 h
[7] = wild type E. coli NCM3722, growth: C-lim chemostat, doubling time 6 h
[8] = wild type E. coli NCM3722, growth: C-lim chemostat, doubling time 12 h
[9] = wild type E. coli NCM3722, growth: N-lim chemostat, doubling time 6 h
[10] = wild type E. coli NCM3722, growth: N-lim chemostat, doubling time 12 h
[11] = wild type E. coli NCM3722, growth: P-lim chemostat, doubling time 6 h
[12] = wild type E. coli NCM3722, growth: P-lim chemostat, doubling time 12 h

Sequence | total protein half-life in vivo [1] [h] | total protein half-life in vivo [2] [h] | total protein half-life in vivo [3] [h] | total protein half-life in vivo [4] [h] | total protein half-life in vivo [5] [h] | total protein half-life in vivo [6] [h] | total protein half-life in vivo [7] [h] | total protein half-life in vivo [8] [h] | total protein half-life in vivo [9] [h] | total protein half-life in vivo [10] [h] | total protein half-life in vivo [11] [h] | total protein half-life in vivo [12] [h]
MKTLSPAVITLLWRQDAAEFYFSRLSHLPWAMLLHSGYADHPYSRFDIVVAEPICTLTTFGKETVVSESEKRTTTTDDPLQVLQQVLDRADIRPTHNEDLPFQGGALGLFGYDLGRRFESLPEIAEQDIVLPDMAVGIYDWALIVDHQRHTVSLLSHNDVNARRAWLESQQFSPQEDFTLTSDWQSNMTREQYGEKFRQVQEYLHSGDCYQVNLAQRFHATYSGDEWQAFLQLNQANRAPFSAFLRLEQGAILSLSPERFILCDNSEIQTRPIKGTLPRLPDPQEDSKQAVKLANSAKDRAENLMIVDLMRNDIGRVAVAGSVKVPELFVVEPFPAVHHLVSTITAQLPEQLHASDLLRAAFPGGSITGAPKVRAMEIIDELEPQRRNAWCGSIGYLSFCGNMDTSITIRTLTAINGQIFCSAGGGIVADSQEEAEYQETFDKVNRILKQLEK | 5 ± 0.22 | 4.56 ± 0.35 | 4.358 ± 0.037 | 4.5 ± 0.1 | 4.47 ± 0.21 | 3.57 ± 0.57 | 5.38 ± 0.12 | 11 ± 0.69 | 4.31 ± 0.16 | 7.82 ± 0.28 | 6.33 ± 0.27 | 12.2 ± 1.5
MISRVTEALSKVKGSMGSHERHALPGVIGDDLLRFGKLPLCLFICIILTAVTVVTTAHHTRLLTAQREQLVLERDALDIEWRNLILEENALGDHSRVERIATEKLQMQHVDPSQENIVVQK [P0AEN4] | 4.86 ± 0.82 | 3.72 ± 0.074 | 2.91 | 4.25 ± 0.28 | 3.44 ± 0.1 | 2.6 ± 0.074 | 3.85 | 7.71 ± 1.4 | 4.3 ± 0.56 | 5.19 ± 0.39 | 4.04 ± 0.16 | 5.75 ± 1.9

Reference: the supplement of paper PMC11246515
